Biological target: gC1qR (C1QBP) on human T cells (human) (UniProt Q07021)
Experiment: cell-based or functional assay

Substance	PLA2G1B enzymatic activity on the membrane of CD4 T cells ([3H] arachidonic acid release) [Fold]
Staphylococcus aureus protein A (Sigma P6031)	3
HCV core protein (Prospec HCV-011)	26

— patent EP4115900A1
